In patent US20170355766A1 (Xencor, published 2017):
Where a chain is given by its changes, count along the chain named. Numbers in names are those of the source.

T1: FcγRIIaR (human, UniProt P12318)
T1 construct: recombinant receptor protein with 6xHis and GST tags; also called R131 FcγRIIa
T1 sequence (receptor, looked up): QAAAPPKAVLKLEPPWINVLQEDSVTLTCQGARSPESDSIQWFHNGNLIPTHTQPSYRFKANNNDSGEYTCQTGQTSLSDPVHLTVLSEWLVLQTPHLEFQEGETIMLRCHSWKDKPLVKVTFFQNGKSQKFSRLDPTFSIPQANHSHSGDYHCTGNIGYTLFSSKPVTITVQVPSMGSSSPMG

T2: human FcγRIIb receptor protein (R&D Systems) (human, UniProt P31994 46-217)
T2 construct: Analyte injected over antibodies captured on a protein A/G chip (Biacore); also called CD32b
T2 sequence (looked up): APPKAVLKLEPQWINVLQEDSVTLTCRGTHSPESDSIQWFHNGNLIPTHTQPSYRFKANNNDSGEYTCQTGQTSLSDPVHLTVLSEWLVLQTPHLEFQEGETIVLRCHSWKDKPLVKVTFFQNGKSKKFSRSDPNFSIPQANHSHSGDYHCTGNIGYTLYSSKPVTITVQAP

B1: A327G (antibody, human IgG1, kappa)
heavy: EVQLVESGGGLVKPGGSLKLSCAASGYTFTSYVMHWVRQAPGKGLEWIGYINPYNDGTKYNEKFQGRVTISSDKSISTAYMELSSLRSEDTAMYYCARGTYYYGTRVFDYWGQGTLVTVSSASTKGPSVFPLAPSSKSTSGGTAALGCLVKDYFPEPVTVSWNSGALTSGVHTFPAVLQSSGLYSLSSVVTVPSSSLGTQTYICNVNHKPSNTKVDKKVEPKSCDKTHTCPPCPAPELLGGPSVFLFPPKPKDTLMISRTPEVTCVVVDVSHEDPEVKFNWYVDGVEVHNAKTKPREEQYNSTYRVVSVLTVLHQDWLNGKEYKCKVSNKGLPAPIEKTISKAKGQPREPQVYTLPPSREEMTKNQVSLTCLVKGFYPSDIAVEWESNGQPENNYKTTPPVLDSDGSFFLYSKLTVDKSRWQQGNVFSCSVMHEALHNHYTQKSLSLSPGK
light: DIVMTQSPATLSLSPGERATLSCRSSKSLQNVNGNTYLYWFQQKPGQSPQLLIYRMSNLNSGVPDRFSGSGSGTEFTLTISSLEPEDFAVYYCMQHLEYPITFGAGTKLEIKRTVAAPSVFIFPPSDEQLKSGTASVVCLLNNFYPREAKVQWKVDNALQSGNSQESVTEQDSKDSTYSLSSTLTLSKADYEKHKVYACEVTHQGLSSPVTKSFNRGEC
notes: HuAM4G7 IgG1 Fc variant
B2: S267A/L328Y/I332E (antibody, human IgG1, kappa)
heavy: EVQLVESGGGLVKPGGSLKLSCAASGYTFTSYVMHWVRQAPGKGLEWIGYINPYNDGTKYNEKFQGRVTISSDKSISTAYMELSSLRSEDTAMYYCARGTYYYGTRVFDYWGQGTLVTVSSASTKGPSVFPLAPSSKSTSGGTAALGCLVKDYFPEPVTVSWNSGALTSGVHTFPAVLQSSGLYSLSSVVTVPSSSLGTQTYICNVNHKPSNTKVDKKVEPKSCDKTHTCPPCPAPELLGGPSVFLFPPKPKDTLMISRTPEVTCVVVDVAHEDPEVKFNWYVDGVEVHNAKTKPREEQYNSTYRVVSVLTVLHQDWLNGKEYKCKVSNKAYPAPEEKTISKAKGQPREPQVYTLPPSREEMTKNQVSLTCLVKGFYPSDIAVEWESNGQPENNYKTTPPVLDSDGSFFLYSKLTVDKSRWQQGNVFSCSVMHEALHNHYTQKSLSLSPGK
light: B1 light
notes: HuAM4G7 IgG1 Fc variant
B3: S239D/H268D/L328Y (antibody, human IgG1, kappa)
heavy: B2 heavy with S243D, A271S, H272D, E336I
light: B1 light
notes: HuAM4G7 IgG1 Fc variant
B4: S239D/L328Y (antibody, human IgG1, kappa)
heavy: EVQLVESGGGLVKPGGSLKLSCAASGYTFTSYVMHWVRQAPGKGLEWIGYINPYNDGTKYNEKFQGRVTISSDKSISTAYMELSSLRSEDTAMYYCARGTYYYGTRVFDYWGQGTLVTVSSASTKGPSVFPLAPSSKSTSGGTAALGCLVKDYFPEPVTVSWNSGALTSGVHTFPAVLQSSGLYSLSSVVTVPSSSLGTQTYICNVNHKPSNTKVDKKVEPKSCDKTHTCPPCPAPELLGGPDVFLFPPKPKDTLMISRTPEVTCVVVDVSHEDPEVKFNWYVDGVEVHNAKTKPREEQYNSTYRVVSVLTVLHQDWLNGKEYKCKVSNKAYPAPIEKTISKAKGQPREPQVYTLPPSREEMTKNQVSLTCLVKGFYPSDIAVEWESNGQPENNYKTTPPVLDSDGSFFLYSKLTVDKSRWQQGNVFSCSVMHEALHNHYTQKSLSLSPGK
light: B1 light
notes: HuAM4G7 IgG1 Fc variant
B5: A327Q (antibody, human IgG1, kappa)
heavy: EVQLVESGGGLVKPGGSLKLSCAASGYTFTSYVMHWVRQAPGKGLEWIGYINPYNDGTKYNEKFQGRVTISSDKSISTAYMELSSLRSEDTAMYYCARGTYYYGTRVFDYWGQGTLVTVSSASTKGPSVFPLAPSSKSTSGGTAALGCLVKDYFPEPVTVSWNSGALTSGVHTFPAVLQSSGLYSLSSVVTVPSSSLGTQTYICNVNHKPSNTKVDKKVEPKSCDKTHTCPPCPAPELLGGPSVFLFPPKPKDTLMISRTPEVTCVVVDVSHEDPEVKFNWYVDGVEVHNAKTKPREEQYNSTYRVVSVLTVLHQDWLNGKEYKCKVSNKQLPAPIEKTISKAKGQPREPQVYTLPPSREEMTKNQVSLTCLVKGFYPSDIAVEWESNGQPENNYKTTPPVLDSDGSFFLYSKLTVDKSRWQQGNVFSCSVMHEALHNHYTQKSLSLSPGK
light: B1 light
notes: HuAM4G7 IgG1 Fc variant
B6: S239D/S267A/L328Y (antibody, human IgG1, kappa)
heavy: B2 heavy with S243D, E336I
light: B1 light
notes: HuAM4G7 IgG1 Fc variant
B7: S267E/H268D (antibody, human IgG1, kappa)
heavy: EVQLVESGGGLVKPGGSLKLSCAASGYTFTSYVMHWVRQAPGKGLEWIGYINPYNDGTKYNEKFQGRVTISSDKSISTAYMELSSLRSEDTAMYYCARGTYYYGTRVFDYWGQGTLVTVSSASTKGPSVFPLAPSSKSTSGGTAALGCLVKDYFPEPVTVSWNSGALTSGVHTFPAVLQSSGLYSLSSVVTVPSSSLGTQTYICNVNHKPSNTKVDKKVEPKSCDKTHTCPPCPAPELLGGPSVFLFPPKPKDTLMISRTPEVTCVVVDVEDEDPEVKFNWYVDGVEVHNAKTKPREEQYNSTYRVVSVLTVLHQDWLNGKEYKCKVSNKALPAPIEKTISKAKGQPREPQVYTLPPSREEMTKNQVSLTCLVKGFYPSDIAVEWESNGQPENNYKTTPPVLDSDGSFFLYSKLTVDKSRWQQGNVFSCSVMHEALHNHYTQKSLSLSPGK
light: B1 light
notes: HuAM4G7 IgG1 Fc variant
B8: S267A/H268D/L328Y (antibody, human IgG1, kappa)
heavy: B2 heavy with H272D, E336I
light: B1 light
notes: HuAM4G7 IgG1 Fc variant
B9: S267D/H268D (antibody, human IgG1, kappa)
heavy: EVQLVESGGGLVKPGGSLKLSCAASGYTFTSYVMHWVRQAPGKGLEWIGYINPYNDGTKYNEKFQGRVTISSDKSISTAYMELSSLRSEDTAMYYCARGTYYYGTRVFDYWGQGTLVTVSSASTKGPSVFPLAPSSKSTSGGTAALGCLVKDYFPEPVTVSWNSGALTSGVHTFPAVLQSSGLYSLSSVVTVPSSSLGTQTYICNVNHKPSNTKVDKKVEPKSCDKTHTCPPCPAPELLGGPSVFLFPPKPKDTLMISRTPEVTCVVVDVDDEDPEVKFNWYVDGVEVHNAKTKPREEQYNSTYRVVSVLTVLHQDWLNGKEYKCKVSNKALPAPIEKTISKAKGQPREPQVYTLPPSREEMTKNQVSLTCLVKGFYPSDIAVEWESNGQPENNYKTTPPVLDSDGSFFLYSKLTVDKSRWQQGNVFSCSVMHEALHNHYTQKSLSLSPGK
light: B1 light
notes: HuAM4G7 IgG1 Fc variant
B10: S267D/H268E (antibody, human IgG1, kappa)
heavy: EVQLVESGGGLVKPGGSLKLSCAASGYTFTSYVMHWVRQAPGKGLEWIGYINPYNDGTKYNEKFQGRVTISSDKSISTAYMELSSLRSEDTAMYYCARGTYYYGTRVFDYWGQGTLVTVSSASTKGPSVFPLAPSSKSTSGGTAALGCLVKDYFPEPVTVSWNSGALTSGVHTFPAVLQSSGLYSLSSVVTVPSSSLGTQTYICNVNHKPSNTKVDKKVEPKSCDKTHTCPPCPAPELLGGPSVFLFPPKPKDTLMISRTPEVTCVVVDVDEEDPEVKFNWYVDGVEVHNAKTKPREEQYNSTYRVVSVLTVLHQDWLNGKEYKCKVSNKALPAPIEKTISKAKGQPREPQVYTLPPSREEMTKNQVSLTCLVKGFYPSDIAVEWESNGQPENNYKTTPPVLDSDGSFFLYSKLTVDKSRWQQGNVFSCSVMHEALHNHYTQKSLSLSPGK
light: B1 light
notes: HuAM4G7 IgG1 Fc variant
B11: S239D/H268E/L328Y (antibody, human IgG1, kappa)
heavy: B2 heavy with S243D, A271S, H272E, E336I
light: B1 light
notes: HuAM4G7 IgG1 Fc variant
B12: L235N (antibody, human IgG1, kappa)
heavy: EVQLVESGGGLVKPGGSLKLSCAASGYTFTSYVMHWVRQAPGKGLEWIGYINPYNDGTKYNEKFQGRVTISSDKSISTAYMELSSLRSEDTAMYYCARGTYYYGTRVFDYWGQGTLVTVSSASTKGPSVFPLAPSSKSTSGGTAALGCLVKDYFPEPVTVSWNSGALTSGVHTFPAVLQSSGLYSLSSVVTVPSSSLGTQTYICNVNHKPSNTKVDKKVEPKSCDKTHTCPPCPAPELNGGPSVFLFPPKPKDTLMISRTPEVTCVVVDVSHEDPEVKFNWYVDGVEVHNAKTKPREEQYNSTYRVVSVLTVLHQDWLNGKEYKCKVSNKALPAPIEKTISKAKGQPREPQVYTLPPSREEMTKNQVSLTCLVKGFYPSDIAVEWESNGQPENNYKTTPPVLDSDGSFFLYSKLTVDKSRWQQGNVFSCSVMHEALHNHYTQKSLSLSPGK
light: B1 light
notes: HuAM4G7 IgG1 Fc variant
B13: S239D/L328Y/I332E (antibody, human IgG1, kappa)
heavy: B2 heavy with S243D, A271S
light: B1 light
notes: HuAM4G7 IgG1 Fc variant
B14: S239D/H268D/L328Y/I332E (antibody, human IgG1, kappa)
heavy: B2 heavy with S243D, A271S, H272D
light: B1 light
notes: HuAM4G7 IgG1 Fc variant
B15: S267D/A327D (antibody, human IgG1, kappa)
heavy: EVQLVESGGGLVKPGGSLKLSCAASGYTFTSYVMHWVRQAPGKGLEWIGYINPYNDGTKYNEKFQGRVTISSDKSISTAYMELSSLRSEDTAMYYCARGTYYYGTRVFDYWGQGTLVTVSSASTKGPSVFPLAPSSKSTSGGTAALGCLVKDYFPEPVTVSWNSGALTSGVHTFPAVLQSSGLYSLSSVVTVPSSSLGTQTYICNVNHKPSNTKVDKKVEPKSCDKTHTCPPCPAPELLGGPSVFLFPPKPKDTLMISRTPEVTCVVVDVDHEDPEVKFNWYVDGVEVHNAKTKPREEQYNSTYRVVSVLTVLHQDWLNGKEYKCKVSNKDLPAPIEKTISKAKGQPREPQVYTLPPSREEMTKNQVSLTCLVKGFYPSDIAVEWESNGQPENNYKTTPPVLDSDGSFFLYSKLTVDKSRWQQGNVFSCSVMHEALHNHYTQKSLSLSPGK
light: B1 light
notes: HuAM4G7 IgG1 Fc variant
B16: H268Q (antibody, human IgG1, kappa)
heavy: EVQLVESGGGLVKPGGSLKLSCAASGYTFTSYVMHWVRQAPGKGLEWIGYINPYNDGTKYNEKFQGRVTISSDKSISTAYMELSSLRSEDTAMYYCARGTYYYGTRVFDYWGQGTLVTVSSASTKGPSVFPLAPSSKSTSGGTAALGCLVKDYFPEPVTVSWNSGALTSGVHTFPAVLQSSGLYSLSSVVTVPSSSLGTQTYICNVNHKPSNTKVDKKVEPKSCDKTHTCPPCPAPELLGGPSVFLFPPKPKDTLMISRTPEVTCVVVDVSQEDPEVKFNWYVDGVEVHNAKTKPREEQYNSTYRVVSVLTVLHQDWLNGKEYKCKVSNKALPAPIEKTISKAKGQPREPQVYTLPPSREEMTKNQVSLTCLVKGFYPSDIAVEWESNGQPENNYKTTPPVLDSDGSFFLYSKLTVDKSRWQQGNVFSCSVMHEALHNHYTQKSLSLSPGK
light: B1 light
notes: HuAM4G7 IgG1 Fc variant
B17: S239D/S267D (antibody, human IgG1, kappa)
heavy: not shown
light: B1 light
notes: HuAM4G7 IgG1 Fc variant
B18: G236V (antibody, human IgG1, kappa)
heavy: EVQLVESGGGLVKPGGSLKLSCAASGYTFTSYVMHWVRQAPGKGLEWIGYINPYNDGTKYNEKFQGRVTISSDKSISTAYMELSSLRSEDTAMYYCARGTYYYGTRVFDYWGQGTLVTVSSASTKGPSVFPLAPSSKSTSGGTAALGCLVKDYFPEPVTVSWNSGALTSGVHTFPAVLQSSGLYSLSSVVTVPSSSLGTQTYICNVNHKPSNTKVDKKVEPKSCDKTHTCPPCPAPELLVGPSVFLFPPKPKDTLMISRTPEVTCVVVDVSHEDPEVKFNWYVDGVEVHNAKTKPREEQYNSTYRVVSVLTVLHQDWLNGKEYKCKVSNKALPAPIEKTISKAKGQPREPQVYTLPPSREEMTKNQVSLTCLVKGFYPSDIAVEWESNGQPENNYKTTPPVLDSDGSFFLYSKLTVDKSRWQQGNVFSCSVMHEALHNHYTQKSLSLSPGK
light: B1 light
notes: HuAM4G7 IgG1 Fc variant
B19: S239D/S267E/I332E (antibody, human IgG1, kappa)
heavy: B2 heavy with S243D, A271E, Y332L
light: B1 light
notes: HuAM4G7 IgG1 Fc variant
B20: L235P (antibody, human IgG1, kappa)
heavy: not shown
light: B1 light
notes: HuAM4G7 IgG1 Fc variant
B21: L235Q (antibody, human IgG1, kappa)
heavy: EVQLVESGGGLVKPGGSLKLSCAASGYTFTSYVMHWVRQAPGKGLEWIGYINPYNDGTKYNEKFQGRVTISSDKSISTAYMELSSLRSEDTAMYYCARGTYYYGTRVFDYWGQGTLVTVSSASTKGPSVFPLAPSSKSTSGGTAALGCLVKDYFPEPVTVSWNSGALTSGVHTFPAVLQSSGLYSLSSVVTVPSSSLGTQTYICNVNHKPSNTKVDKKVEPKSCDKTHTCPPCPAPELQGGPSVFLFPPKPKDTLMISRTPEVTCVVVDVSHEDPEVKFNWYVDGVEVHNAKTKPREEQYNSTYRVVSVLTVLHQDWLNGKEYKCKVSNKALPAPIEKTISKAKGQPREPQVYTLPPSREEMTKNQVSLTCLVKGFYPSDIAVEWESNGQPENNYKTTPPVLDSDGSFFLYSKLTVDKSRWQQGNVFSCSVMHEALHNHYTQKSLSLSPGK
light: B1 light
notes: HuAM4G7 IgG1 Fc variant
B22: S239D/L328F/I332E (antibody, human IgG1, kappa)
heavy: B2 heavy with S243D, A271S, Y332F
light: B1 light
notes: HuAM4G7 IgG1 Fc variant
B23: S239D/H268D/L328W/I332E (antibody, human IgG1, kappa)
heavy: B2 heavy with S243D, A271S, H272D, Y332W
light: B1 light
notes: HuAM4G7 IgG1 Fc variant
B24: S267E/L328Q (antibody, human IgG1, kappa)
heavy: not shown
light: B1 light
notes: HuAM4G7 IgG1 Fc variant
B25: S239D/K326D/L328Y (antibody, human IgG1, kappa)
heavy: B2 heavy with S243D, A271S, K330D, E336I
light: B1 light
notes: HuAM4G7 IgG1 Fc variant
B26: S267D/A327E (antibody, human IgG1, kappa)
heavy: not shown
light: B1 light
notes: HuAM4G7 IgG1 Fc variant

Key:
FcγRIIaR = biological target: T1, FcγRIIaR; assay: SPR (Biacore)
[1] = biological target: T2, human FcγRIIb receptor protein (R&D …); assay: SPR (Biacore)

Row | Binder | Fold FcγRIIaR (FcγRIIaR) | Fold FcγRIIb [1]
1 | B1 | 0.319 fold | 0.353 fold
2 | B2 |  | 13.5 fold
3 | B3 |  | 24.4 fold
4 | B4 |  | 5.56 fold
5 | B5 | 0.634 fold | 0.011 fold
6 | B6 |  | 19.8 fold
7 | B7 |  | 33.3 fold
8 | B8 |  | 10.7 fold
9 | B9 |  | 14.2 fold
10 | B10 |  | 17.8 fold
11 | B11 |  | 21.7 fold
12 | B12 | 0.0356 fold | 
13 | B13 |  | 7.41 fold
14 | B14 |  | 54.1 fold
15 | B15 |  | 6.89 fold
16 | B16 | 1.58 fold | 
17 | B17 |  | 22.3 fold
18 | B18 | 0.106 fold | 
19 | B19 |  | 124 fold
20 | B20 | 0.122 fold | 
21 | B21 | 2.04 fold | 
22 | B22 |  | 8.34 fold
23 | B23 |  | 27.8 fold
24 | B24 |  | 12.1 fold
25 | B25 |  | 13 fold
26 | B26 |  | 12.1 fold
